According to publication PMC2670278 (Nature, 2009):

Target: factor H CCPs 6 & 7 (human, UniProt P08603, 402^His)
Test: SPR

B1: factor H binding protein, construct comprising regions A, B and C but lacking the lipid anchor (natural protein)
chain: GGVAADIGAGLADALTAPLDHKDKGLQSLTLDQSVRKNEKLKLAAQGAEKTYGNGDSLNTGKLKNDKVSRFDFIRQIEVDGQLITLESGEFQVYKQSHSALTAFQTEQIQDSEHSGKMVAKRQFRIGDIAGEHTSFDKLPEGGRATYRGTAFGSDDAGGKLTYTIDFAAKQGNGKIEHLKSPELNVDLAAADIKPDGKRHAVISGSVLYNQAEKGSYSLGIFGGKAQEVAGSAEVKTVNGIRHIGLAAKQ
  Kd: ~5 nM
